B1: RPS21 (parent)
chain: AEVSWEPGRREGCDICAGKAGCPI

Variants of: B1
Assay: protein stability index of a GFP-peptide fusion (GPS, HEK-293T) (PSI 1-6); higher = more stable
Conditions: c terminus: a fixed tail appended
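Further: lentivirally expressed fusions sorted by FACS into six bins by GFP to DsRed ratio, PSI derived from sequencing read proportions per bin multiplied by bin number.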

Variant | protein stability index
R9A | 3.95
R9D | 4.04
R9F | 3.89
R9I | 3.14
R9L | 3.49
R9M | 3.02
R9N | 3.35
R9P | 3.26
R9Q | 3.75
R9T | 3.67
R9W | 2.67
R9Y | 3.1
R10A | 3.49
R10C | 3.8
R10E | 2.81
R10F | 2.46
R10G | 2.52
R10H | 4.11
R10I | 2.91
R10K | 3.32
R10L | 2.84
R10N | 3.47
R10P | 1.9
R10Q | 3.09

Variant | protein stability index
R10S | 3.14
R10T | 3.2
R10V | 2.69
R10Y | 4.13
E11A | 1.95
E11C | 3.22
E11D | 3.37
E11F | 4.96
E11G | 1.99
E11H | 3.53
E11I | 2.56
E11K | 2.6
E11L | 2.46
E11N | 2.55
E11P | 2.92
E11S | 2.96
E11T | 2.87
E11W | 2.13
E11Y | 2.69
G12C | 3.29
G12D | 4.16
G12E | 3.86
G12I | 2.52
G12K | 2.5

Variant | protein stability index
G12M | 4.41
G12N | 3.07
G12P | 3.21
G12Q | 2.45
G12T | 3.67
G12V | 2.63
G12W | 4.38
C13A | 2.49
C13D | 4.06
C13E | 4.21
C13F | 3.97
C13G | 3.88
C13H | 4.27
C13M | 4.01
C13R | 4.04
C13T | 4.38
C13V | 5.29
C13Y | 3.84
D14A | 2.13
D14H | 2.5
D14I | 3.65
D14K | 3.66
D14M | 2.18
D14N | 2.35

Variant | protein stability index
D14V | 3.22
I15C | 4.43
I15E | 4.25
I15F | 2.08
I15G | 4.06
I15H | 4.36
I15L | 2.43
I15M | 3.42
I15Q | 3.46
I15R | 2.96
I15S | 4.14
I15T | 3.83
I15V | 3.53
I15W | 3.74
I15Y | 3.21
C16D | 3.44
C16F | 3.58
C16I | 3.69
C16K | 3.86
C16L | 4
C16Q | 4.37
C16R | 4.22
C16T | 2.97
C16V | 3.67

Variant | protein stability index
C16W | 1.6
C16Y | 3.04
A17C | 3.11
A17E | 3.78
A17F | 2.3
A17G | 3.38
A17H | 3.66
A17I | 2.59
A17L | 2.01
A17M | 2.29
A17N | 3.45
A17P | 3.72
A17R | 2.97
A17S | 2.46
A17T | 3.58
A17V | 3.14
A17Y | 3.57
G18A | 3.08
G18C | 2.79
G18D | 4.25
G18F | 2.75
G18H | 2.97
G18I | 2.24
G18K | 2.7

Variant | protein stability index
G18M | 3.06
G18N | 3.63
G18P | 3.47
G18S | 3.63
G18T | 3.28
G18W | 2.74
G18Y | 2.66
K19D | 4.29
K19E | 4.29
K19F | 2.15
K19G | 3.99
K19H | 2.13
K19I | 3.79
K19L | 2.3
K19M | 2.48
K19N | 2
K19Q | 2.97
K19T | 2.62
K19W | 1.28
K19Y | 2.24
A20C | 4.67
A20D | 3.5
A20E | 2.36
A20F | 3.1

Variant | protein stability index
A20H | 3.25
A20I | 2.53
A20K | 1.5
A20L | 2.48
A20N | 3.26
A20P | 3.34
A20R | 2.26
A20S | 3.69
A20T | 3.75
A20V | 2.59
A20Y | 2.96
G21A | 3.26
G21C | 2.84
G21D | 3.59
G21F | 2.13
G21I | 2.67
G21L | 3.38
G21M | 3.01
G21N | 2.82
G21P | 3.35
G21Q | 4.18
G21R | 2.75
G21S | 2.59

Reference: the supplement of paper PMC10567573
